Measured values: patent publication US20070178531A1 (BIOCHECK, published 2007)
Changes are numbered by the printed parent chain.

Key:
Human Id1: Histidine [1] = target: T1, Human Id1: Histidine (human, UniProt P41134 1-155, limits assumed); assay: ELISA, Ab 0.025 µg/ml
T1 construct: Fusion protein made in E. coli from vector pGW07; also called h-Id1: his; not shown: His tag
T1 sequence (looked up): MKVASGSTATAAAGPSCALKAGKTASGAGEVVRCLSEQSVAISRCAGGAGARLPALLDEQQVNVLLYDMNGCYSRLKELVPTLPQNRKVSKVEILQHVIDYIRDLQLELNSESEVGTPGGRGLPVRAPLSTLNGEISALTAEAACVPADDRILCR
Experimental: (§1) 1. Dispense 100 μL of antibody diluent, diluted rabbit monoclonal human Id3, and mouse/human Id3 hybridoma supernatants into appropriate wells. […] 2. Incubate at room temperature with mechanical shaking at 750 rpm for 90 minutes. [0165] 3. Remove the incubation mixture by flicking plate content into an appropriate waste container followed by rinsing the wells 5 times with distilled water. [0166] 4. Strike the wells sharply onto absorbent paper or paper towels to remove all residual water droplets. [0167] 5. Dispense 100 μL of 1:50,000 Goat Anti-Rabbit IgG-HRP Conjugate Reagent into each well. Gently mix for 5 seconds. [0168] 6. Incubate at room temperature with mechanical shaking at 750 rpm for 90 minutes. [0169] 7. Repeat procedures 3 and 4. [0170] 8. Dispense 100 μL of TMB Reagent into each well. Gently mix for 5 seconds. [0171] 9. Incubate at room temperature with mechanical shaking at 750 rpm for 20 minutes. […] 10. Add 100 μL of Stop Solution (1N HCl) into each well. [0173] 11. Gently mix for 10 seconds to ensure a complete mixing. [0174] 12. Read optical density at A450 nm.
(§2) Cross-reactivity of rabbit monoclonal anti-mouse/human Id3 (clone #6-1) and commercial rabbit polyclonal antibody (Santa Cruz Biotechnology) were determined according to the procedures of Example 9.

Mouse Id2: Histidine [2] = target: T2, Mouse Id2: Histidine (mouse, UniProt P41136 1-134, limits assumed); assay: ELISA, Ab 0.025 µg/ml
T2 construct: Fusion protein made in E. coli from vector pGW07; also called m-Id2: His; not shown: His tag
T2 sequence (looked up): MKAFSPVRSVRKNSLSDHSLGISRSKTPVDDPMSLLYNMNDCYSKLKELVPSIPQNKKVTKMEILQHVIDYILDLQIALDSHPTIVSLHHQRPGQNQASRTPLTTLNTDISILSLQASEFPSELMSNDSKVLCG
Experimental: as §1, §2

Mouse Id1: Histidine [3] = target: T3, Mouse Id1: Histidine (mouse, UniProt P20067-2 1-148, limits assumed); assay: ELISA, Ab 0.025 µg/ml
T3 construct: Fusion protein made in E. coli from vector pGW07; also called m-Id1-His; not shown: His tag
T3 sequence (looked up): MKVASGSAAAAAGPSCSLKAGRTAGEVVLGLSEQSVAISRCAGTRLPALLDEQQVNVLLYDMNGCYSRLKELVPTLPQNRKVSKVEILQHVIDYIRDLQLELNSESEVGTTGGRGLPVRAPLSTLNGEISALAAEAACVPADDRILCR
Experimental: as §1, §2

Human Id2: Histidine [4] = target: T4, Human Id2: Histidine (human, UniProt Q02363 1-134, limits assumed); assay: ELISA, Ab 0.025 µg/ml
T4 construct: Fusion protein made in E. coli from vector pGW07; also called h-Id2: His; not shown: His tag
T4 sequence (looked up): T2 sequence (looked up) with T60S, V131A
Experimental: as §1, §2

Human Id3: Histidine [5] = target: T5, Human Id3: Histidine (human, UniProt Q02535 1-119 at identity 1.00)); assay: ELISA, Ab 0.025 µg/ml
T5 construct: Fusion protein made in E. coli from vector pGW07; also called h-Id3: His; Human Id3 (coated wells); not shown: His tag
T5 chain: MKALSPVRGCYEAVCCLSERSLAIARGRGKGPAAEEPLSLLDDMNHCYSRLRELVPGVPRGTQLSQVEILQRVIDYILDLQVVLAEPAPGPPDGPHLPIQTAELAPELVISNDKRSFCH
Experimental: as §1, §2

Mouse Id3: Histidine [6] = target: T6, Mouse Id3: Histidine (mouse, UniProt P41133 1-119); assay: ELISA, Ab 0.025 µg/ml
T6 construct: Fusion protein made in E. coli from vector pGW07; also called m-Id3: His; Mouse Id3 (coated wells); not shown: His tag
T6 sequence: T5 chain with G31S, A33S, A34T, A105T, N112K
Experimental: as §1, §2

Human Id1: Histidine [7] = target: T1, Human Id1: Histidine; assay: ELISA, positive control (stated to be BCH-4/6-1) 0.50 µg/ml
Experimental: as §1
(§3) The materials and method are the same as those described in Example 9 except the following.
(§4) Rabbit monoclonal anti-mouse Id3, hybridoma supernatant was used as the test antibody. Protein G purified, rabbit monoclonal anti-mouse/human Id3 antibody, BCH-4/6-1, 0.92 mg/ml in 0.25% BSA was used as positive controls.

Mouse Id2: Histidine [8] = target: T2, Mouse Id2: Histidine; assay: as above
Experimental: as §1, §3, §4

Human Id2: Histidine [9] = target: T4, Human Id2: Histidine; assay: as above
Experimental: as §1, §3, §4

Human Id3: Histidine [10] = target: T5, Human Id3: Histidine; assay: as above
Experimental: as §1, §3, §4

Human Id1: Histidine [11] = target: T1, Human Id1: Histidine; assay: ELISA, Ab 0.100 µg/ml
Mouse Id2: Histidine [12] = target: T2, Mouse Id2: Histidine; assay: ELISA, Ab 0.100 µg/ml
Mouse Id1: Histidine [13] = target: T3, Mouse Id1: Histidine; assay: ELISA, Ab 0.100 µg/ml
Human Id2: Histidine [14] = target: T4, Human Id2: Histidine; assay: ELISA, Ab 0.100 µg/ml
Mouse Id3: Histidine [15] = target: T6, Mouse Id3: Histidine; assay: ELISA, Ab 0.100 µg/ml

B1: rabbit monoclonal anti-mouse/human Id3, clone #BCH-4/#6-1 (antibody, V domains shown)
VH: QSVEESGGRLVTPGTPLTLTCTASGFSLSNVYIHWVRQAPGKGLEWIGYISDGDTARYATWAKGRFTISKTSSTTVNLKMTSLTTEDTATYFCARQGFNIWGPGTLVTVSL
VL: AVLTQTPSPVSAAVGGTVSISCQSSQSVWNNNWLSWFQQKPGQPPKLLIYETSKLESGVPSRFKGSGSGTQFTLTISDVQCDDAATYYCLGGYWTTSDNNVFGGGTEVVVK
notes: Rabbit IgG from a rabbit hybridoma; also called m/h Id3 MoAb 6-1
A450 (Human Id1: Histidine [1]): 0.073 A450
A450 (Mouse Id2: Histidine [2]): 0.076 A450
A450 (Mouse Id1: Histidine [3]): 0.072 A450
A450 (Human Id2: Histidine [4]): 0.088 A450
A450 (Human Id3: Histidine [5]): 1.01 A450
A450 (Mouse Id3: Histidine [6]): 1.15 A450
A450 (Human Id1: Histidine [7]): 2.13 A450
A450 (Mouse Id2: Histidine [8]): 3.1 A450
A450 (Human Id2: Histidine [9]): 3.23 A450
A450 (Human Id3: Histidine [10]): 2.83 A450
A450 (Human Id1: Histidine [11]): 0.083 A450
A450 (Mouse Id2: Histidine [12]): 0.067 A450
A450 (Mouse Id1: Histidine [13]): 0.085 A450
A450 (Human Id2: Histidine [14]): 0.058 A450
A450 (Mouse Id3: Histidine [15]): 2.42 A450
